± gives the uncertainty stated by the source.
B1: Tripartite motif-containing protein 44, residues 174 to 218; numbered along this chain, Q96DX7 (parent)
chain: VAKRKCPDHGLDLSTYCQEDRQLICVLCPVIGAHQGHQLSTLDEA
B2: RanBP-type and C3HC4-type zinc finger-containing protein 1, residues 369 to 411; numbered along this chain, Q9BYM8 (parent)
chain: YHCKTPDCKGWCFFEDDVNEFTCPVCFHVNCLLCKAIHEQMNC

Variants of: B1
Experiment: abundance fitness (aPCA) (normalised: wild type 0, dead -1); higher = more abundant; growth selection in yeast, the domain comes from the species named
Conditions: Homo sapiens

| Variant | abundance fitness |
| --- | --- |
| L13W | -0.175 ± 0.028 |
| L42F | -0.031 ± 0.053 |
| L42G | 0.05 ± 0.025 |
| L42C | 0.014 ± 0.036 |
| L42M | -0.003 ± 0.031 |
| A2M | -0.009 ± 0.041 |
| A2N | 0.096 ± 0.062 |
| D43V | -0.056 ± 0.027 |
| D43M | -0.072 ± 0.035 |
| E19R | -0.098 ± 0.027 |
| E19V | -0.06 ± 0.027 |
| L27N | 0.055 ± 0.038 |
| H9R | -0.975 ± 0.041 |
| H9S | -1.02 ± 0.067 |
| V26K | 0.113 ± 0.033 |
| H37Y | -0.849 ± 0.071 |
| H37P | -0.588 ± 0.04 |
| H37A | -0.679 ± 0.032 |
| V1G | -0.107 ± 0.029 |
| V1P | -0.11 ± 0.22 |
| V1N | -0.097 ± 0.047 |
| Q18S | -0.015 ± 0.031 |
| Y16D | -0.276 ± 0.037 |
| L39G | -0.041 ± 0.025 |

| Variant | abundance fitness |
| --- | --- |
| K5Q | -0.163 ± 0.032 |
| K5R | -0.159 ± 0.027 |
| L23F | -0.163 ± 0.049 |
| S14L | -0.031 ± 0.028 |
| S14W | -0.155 ± 0.03 |
| S14A | -0.001 ± 0.027 |
| C17L | -0.982 ± 0.059 |
| C17F | -0.334 ± 0.16 |
| C17Q | -0.633 ± 0.045 |
| A45W | -0.036 ± 0.05 |
| A45S | -0.243 ± 0.036 |
| A45T | 0.021 ± 0.039 |
| Q35Y | -0.067 ± 0.044 |
| L11K | 0.016 ± 0.097 |
| L11Q | -0.024 ± 0.03 |
| R21K | 0.063 ± 0.037 |
| R21S | 0.068 ± 0.03 |
| R21E | 0.043 ± 0.029 |
| I24F | -0.173 ± 0.047 |
| I24M | -0.041 ± 0.031 |
| G36K | -0.128 ± 0.033 |
| G36C | -0.172 ± 0.035 |
| C28Y | -0.919 ± 0.082 |
| G10F | -0.206 ± 0.053 |

| Variant | abundance fitness |
| --- | --- |
| T15C | -0.153 ± 0.034 |
| T15D | -0.006 ± 0.036 |
| T15F | -0.382 ± 0.046 |
| D12C | -0.366 ± 0.057 |
| D12P | -0.033 ± 0.048 |
| Q22E | 0.072 ± 0.029 |
| D20S | -0.138 ± 0.032 |
| D20N | -0.419 ± 0.056 |
| T41H | -0.102 ± 0.049 |
| Q38L | -0.061 ± 0.03 |
| Q38P | -0.03 ± 0.032 |
| Q38H | 0.024 ± 0.045 |
| P29E | -0.031 ± 0.028 |
| I31K | 0.067 ± 0.036 |
| I31S | 0.097 ± 0.028 |
| I31R | 0.003 ± 0.026 |
| A33W | -0.148 ± 0.032 |
| H34Q | -0.605 ± 0.043 |
| H34P | -0.701 ± 0.046 |
| S40L | -0.084 ± 0.029 |
| S40P | -0.044 ± 0.031 |
| R4P | -0.314 ± 0.037 |
| R4E | -0.046 ± 0.028 |
| R4T | -0.07 ± 0.032 |

Variants of: B2
Experiment: as above
Conditions: Homo sapiens

| Variant | abundance fitness |
| --- | --- |
| K4G | -0.222 ± 0.038 |
| K4A | 0.012 ± 0.041 |
| K4F | 0.028 ± 0.09 |
| K4N | -0.134 ± 0.092 |
| K4D | -0.504 ± 0.11 |
| K4R | 0.021 ± 0.041 |
| K4E | -0.359 ± 0.064 |
| K35G | 0.067 ± 0.044 |
| K35D | -0.156 ± 0.1 |
| P6I | -0.411 ± 0.11 |
| P6L | -0.365 ± 0.08 |
| P6A | -0.115 ± 0.044 |
| P6D | -0.343 ± 0.075 |
| N30K | -0.781 ± 0.12 |
| N30R | -0.8 ± 0.066 |
| N30G | -0.811 ± 0.059 |
| N30Q | -0.788 ± 0.15 |
| N30P | -0.784 ± 0.11 |
| N30H | -0.42 ± 0.14 |
| C31E | -0.611 ± 0.057 |
| C31W | -0.738 ± 0.09 |
| C31Y | -0.154 ± 0.2 |
| C31N | -0.532 ± 0.17 |
| C31S | -0.438 ± 0.043 |

| Variant | abundance fitness |
| --- | --- |
| C31L | -1.02 ± 0.1 |
| C31F | -0.648 ± 0.35 |
| C31D | -0.54 ± 0.083 |
| C31H | -0.469 ± 0.085 |
| C31V | -0.76 ± 0.064 |
| C31K | -0.758 ± 0.12 |
| T22E | -0.166 ± 0.045 |
| T22S | -0.267 ± 0.056 |
| T22L | -0.146 ± 0.05 |
| T22M | -0.29 ± 0.092 |
| T22H | -0.032 ± 0.38 |
| T22V | -0.254 ± 0.051 |
| Q40L | -0.452 ± 0.062 |
| Q40N | 0.036 ± 0.093 |
| Q40T | 0.068 ± 0.045 |
| Q40W | -0.542 ± 0.075 |
| Q40R | -0.022 ± 0.04 |
| Q40D | 0.043 ± 0.08 |
| N42S | 0.006 ± 0.042 |
| N42D | 0.025 ± 0.066 |
| N42M | -0.101 ± 0.06 |
| N42I | -0.231 ± 0.21 |
| N42E | 0.075 ± 0.055 |
| N42T | 0.069 ± 0.063 |

| Variant | abundance fitness |
| --- | --- |
| N42V | -0.141 ± 0.062 |
| N42A | 0.106 ± 0.043 |
| Y1I | 0.051 ± 0.2 |
| Y1L | -0.453 ± 0.14 |
| Y1C | -0.509 ± 0.11 |
| Y1H | -0.256 ± 0.12 |
| Y1V | -0.265 ± 0.06 |
| Y1W | -0.437 ± 0.074 |
| C23W | -0.741 ± 0.1 |
| C23Y | -0.677 ± 0.17 |
| C23M | -0.895 ± 0.088 |
| C23H | -0.786 ± 0.19 |
| I37K | -0.208 ± 0.083 |
| I37R | -0.145 ± 0.039 |
| I37S | -0.183 ± 0.046 |
| I37H | -0.218 ± 0.086 |
| I37C | -0.222 ± 0.12 |
| I37E | -0.181 ± 0.055 |
| I37A | -0.152 ± 0.043 |
| I37N | -0.269 ± 0.089 |
| K9S | 0.045 ± 0.041 |
| K9E | 0.064 ± 0.054 |
| K9N | -0.19 ± 0.082 |
| K9R | 0.036 ± 0.041 |

| Variant | abundance fitness |
| --- | --- |
| K9P | 0.047 ± 0.042 |
| K9A | 0.029 ± 0.044 |
| E39T | 0.021 ± 0.051 |
| E39D | 0.03 ± 0.065 |
| E39Q | -0.012 ± 0.057 |
| E39G | 0.024 ± 0.04 |
| E39K | -0.021 ± 0.059 |
| P24R | -0.39 ± 0.047 |
| P24I | -1.09 ± 0.22 |
| P24E | -0.277 ± 0.067 |
| P24K | -0.287 ± 0.073 |
| P24A | -0.558 ± 0.052 |
| P24C | -0.658 ± 0.067 |
| C34N | -0.536 ± 0.24 |
| C34K | -0.623 ± 0.11 |
| C34H | -0.501 ± 0.059 |
| C34S | -0.488 ± 0.052 |
| C34F | -0.654 ± 0.11 |
| C34A | -0.733 ± 0.05 |
| D7H | -0.2 ± 0.067 |
| D7F | -0.245 ± 0.087 |
| D7V | -0.597 ± 0.047 |
| D7I | -0.812 ± 0.26 |

— the Human Domainome abundance scans (Beltran et al. 2025)
